Key:
[1] = molecular target: T1, human IL-33 (mm2) (human, UniProt O95760 112-270); experiment: SPR, Fab captured by anti-human Fab kit, IL-33 in solution
T1 construct: Variant in which all four cysteine residues are serine; the entry carries an N-terminal Met and a C-terminal His6; Biotinylated in some assays; also called hIL-33 (mm2); huIL-33 (mm2)
T1 chain: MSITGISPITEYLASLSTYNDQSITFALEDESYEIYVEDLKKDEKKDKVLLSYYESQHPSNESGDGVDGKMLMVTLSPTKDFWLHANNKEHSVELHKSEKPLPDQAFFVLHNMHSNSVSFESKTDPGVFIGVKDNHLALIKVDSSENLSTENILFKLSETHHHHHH
Protocol: Fab fragment affinity was measured by two methods, surface plasmon resonance using a BIAcore instrument, with either Fab or IL-33 captured on the chip, and solution equilibrium affinity measurements using a KinExA instrument, with both Fab and IL-33 in solution.
Surface plasmon resonance experiments were conducted in two formats.

[2] = molecular target: T2, IL-1α (UniProt P01583 113-271); experiment: SPR (Biacore T200), Fab captured on the chip, cytokine injected
T2 sequence (looked up): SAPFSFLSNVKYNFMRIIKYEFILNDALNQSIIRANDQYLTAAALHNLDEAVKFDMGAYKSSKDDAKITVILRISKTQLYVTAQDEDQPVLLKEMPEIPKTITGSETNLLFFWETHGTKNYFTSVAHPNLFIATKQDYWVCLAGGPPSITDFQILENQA
Source text: (§1) The panel of cytokines included IL-1α, IL-1β, IL-18, IL-36α, and IL-36γ.

[3] = molecular target: T3, IL-18 (UniProt Q14116 37-193); experiment: as above
T3 sequence (looked up): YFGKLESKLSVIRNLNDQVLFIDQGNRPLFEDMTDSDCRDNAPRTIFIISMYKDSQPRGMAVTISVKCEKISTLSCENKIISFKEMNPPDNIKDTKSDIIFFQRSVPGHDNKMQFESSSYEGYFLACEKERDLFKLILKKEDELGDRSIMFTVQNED
Source text: as §1

[4] = molecular target: T4, IL-36α (UniProt Q9UHA7 6-158); experiment: as above
T4 sequence (looked up): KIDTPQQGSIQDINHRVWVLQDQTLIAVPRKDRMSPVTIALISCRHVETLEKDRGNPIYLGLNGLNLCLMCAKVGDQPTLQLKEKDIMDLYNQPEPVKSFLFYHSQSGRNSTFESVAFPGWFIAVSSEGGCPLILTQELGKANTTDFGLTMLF
Source text: as §1

[5] = molecular target: T5, IL-36γ (UniProt Q9NZH8 18-169); experiment: as above
T5 sequence (looked up): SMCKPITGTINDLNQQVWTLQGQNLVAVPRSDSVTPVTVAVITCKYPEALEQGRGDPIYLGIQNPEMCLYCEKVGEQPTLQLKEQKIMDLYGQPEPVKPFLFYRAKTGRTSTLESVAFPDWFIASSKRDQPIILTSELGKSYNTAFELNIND
Source text: as §1

- Kd [1]: 0.249 nM
- koff [1]: 0.000301 s⁻¹
- kon [1]: 1.38e+06 M⁻¹ s⁻¹
- binding result [2]: no binding
- binding result [3]: no binding
- binding result [4]: no binding
- binding result [5]: no binding
B1: 7E8 CDR graft Fab (Fab, V domains shown)
VH: EVQLVESGGGLVQPGGSLRLSCAASGFTFSSYWMYWVRQAPGKGLEWVASITPNGGNTYYPDSVKGRFTISRDNAKNSLYLQMNSLRAEDTAVYYCARGHYYYTSYSLGYWGQGTLVTVSS
VL: DIQMTQSPSSLSASVGDRVTITCKASQNINKHLDWYQQKPGKAPKLLIYFTNNLQTGVPSRFSGSGSGTDFTLTISSLQPEDFATYYCFQYNNGWTFGGGTKVEIKR
notes: also called 7E8 Fab; CDR grafted-7E8 Fab
